Experimental data reported in the DeepSol protein solubility set.

Test: soluble on expression in E. coli; label from the status in PepcDB or PDB records

Row | Sequence | soluble on expression in E. coli
1 | MSLAQLGRFWHISDLHLDPNYTVSKDPLQVCPSAGSQPVLNAGPWGDYLCDSPWALINSSLYAMKEIEPKPDFILWTGDDTPHVPNESLGEAAVLAIVERLTNLIKEVFPDTKVYAALGNHDFHPKNQFPAQSNRIYNQVAELWRPWLSNESYALFKRGAFYSEKLPGPSRAGRVVVLNTNLYYSNNEQTAGMADPGEQFRWLGDVLSNASRDGEMVYVIGHVPPGFFEKTQNKAWFRESFNEEYLKVIQKHHRVIAGQFFGHHHTDSFRMFYDNTGAPINVMFLTPGVTPWKTTLPGVVDGANNPGIRIFEYDRATLNLKDLVTYFLNLRQANVQETPRWEQEYRLTEAYQVPDASVSSMHTALTRIASEPHILQRYYVYNSVSYNHLTCEDSCRIEHVCAIQHVAFNTYATCLHGLGAKLVPGEGHHHHHH | not soluble
2 | MSLAQQSYPNKPIRVIVPFAAGSTTDIIARAIADKMGQSMGQSLVVDNRSGASGTIGQQAVATAPADGYTLMVHSSSHTVSPSTFAKLPFDTQADFAGVTPISSLPNALVIAPAKNIRTLQALLAAARARPGSINFASAGQGSATHLNAEKFRLAARIEATNIPFKGSAEAVTEVLSGRVDYYFSPIAPVIGQIRDGQLLALAVGSPKRAAALPEVPTTAEAGVPGSEFNFWIGMMAPAKTPRAIVERLHDEVVKALATPEVKERFLKLGADAWTLRPEQFDAYIKQEIASNAQLVQAAGLQVPQEGHHHHHH | soluble
3 | MSLARTPNGGAIACSDAAALGKDELFWGALFRGLNRGGSFLQLQIRQIIVTAIEDGRLPLGMKMPSSRDLATVLKVSRNTVVIAYEQLVDQNFLVSRQRSGYFVAGLPKKFATEAPGLAEVTSRGDEHWVDRFAVRPSAHRNIVKPLDWQTHPYPFIFGQFDPSLFPTNDWRESARAALSVPEINNWARDLIDGDDPALIEQLQLQVLPRRGIHARADEIMMTIGAQHALYLIATLFINGQTKVGIEEPGYPDARNIFRMLTPNVVPLSVDSEGVVPDAMFQSCALAYVTSSHQCPTAVTMPLPRRIELLKAAATGDVVVVEDDYEGELMPESATLPPLKSIDRASNVLYVGSLSKALAPGLRLGYVVAPAPVIRELRALRRLMLRHPPLNNQRVAALFIGLGHYRAHLAQVGRVLLERAKLLDQLLPKHLPSCSFSRGPGSTNFWVTCPTSIDATALAEAALEQGVVIEPGAVFSMDETASRHCFRLGFSSIRTDRIEVGIQRLGEVIAQHLKAEGHHHHHH | soluble
4 | MSLATTREEALHIHRENQGKLESKSKVPVRNARDLSLAYSPGVAEPCKEIFEDVETVYEYTMKGNMVAVVSNGTAVLGLGNIGPEASLPVMEGKAVLFKSFAGVDAFPICLRTTDVDQIVETVKLLEPTFGGVNLEDIAAPSCFEIEERLKKETNIPVFHDDQHGTAIVTLAGLINALKLTGKRMSEIKVVANGAGAAGIAIIKLMQRMGVRDIIMCDSKGAIYDGRPYGMNDMKAEVAKWTNRDKIDGGLGDVLKGADVFIGVSVAGALTKEMIENMNDDPIIFAMANPVPEIMPEEAKAAGAKVIGTGRSDFPNQVNNVLAFPGIFRGALDARATHINEEMKVAAVHAIADLVAEEDLDPDYVIPAPFDPRVAPAVAAAVAKTAMETGVARRKVDPAEVEAKTKKLAIIEEGHHHHHH | soluble
5 | MSLAVTLADVARRAGVSLATASRVLNGSARAVSDEMRARVTAAARELHYVPNAHAQALARAATQTVGVIVHDVSDPYFAEILRGIQRSAADAGRLMIVCNTFRDPQRELEYVHLLQKQRVEAIILAGSGLDDRAYCRSMTERLDSFASMGGRVAVIGRHNIAADAVVPDNVGGARALAHYLLDLGHRSFGIIDGPALLTTSRDRRSGFVQALQAGGITLPPDAIIPGDFTRDGGAQAAIRLLERFPSITAIFALNDVMAIGALAALRERGITVPDQMSIVGFDDIPIAADVTPALTTMRVPMSQLGSEALALALSAEDTLRTIHLPTEMIVRQSTAEGHHHHHH | soluble
6 | MSLAWLISEFASVGDVTVRALRYYDKINLLKPSDYTEGGHRLYTKDDLYVLQQIQSFKHLGFSLGEIQNIILQRDIETEVFLRQMHFQREVLLAEQERIAKVLSHMDEMTKKFQKEERVNVALFSSFLQTFIWEKENKEWLEEHFSTESIQAFYNNKELKEKFDRRFMDVIGKLKKYKEEEKDPSHHDVQVTLKEFFHLIEKITDYLDISQSEVVSVIKQSKISMAEFPTLFTNEEEQYIKEAMNKEGHHHHHH | soluble
7 | MSLAYQALYRVFRPQSFQDVVGQEHVTKTLKNAIVQNKTSHAYLFSGPRGTGKTSAAKIFAKAINCEHGHDGEPCNECEICKGTTDGSIPDVLEIDAASNNGVEEIRDIREKVKYAPTVAKYKVYIIDEVHMLSTGAFNALLKTLEEPPKHVIFILATTEPHKLPLTIISRVQRFDFKRITTQDIIGRLKFILEEEKIPYDEKALMIVARAAEGGMRDALSLLDQVISYGSEEVTVEDALEITGSVAQNLLTKLVSAAFDGDAAEAISTLTALLAEGKDPVRLVEDLLVFFRDVLLYQKAPNLEETLERALIDDDFVALAKRADSLKVYEFVKILNTAQQQMRFSNHPGIYVEVALIQLTQAGEGHHHHHH | soluble
8 | MSLCAVTLMACNTAPHSLASSLPVPDALLFPQVQPEYKVAPGDLLLIKVFQVDDLERQVRVDNTGRITLPLLGSIEVSNKGAAELETLIANRYRSDYLQDPQVSVFIQEANARRVTVTGAVTEPGTYPLIGSNLTLQQVIAQAKGINTLASLQNVVVFRTVKGQKMLARFDLARIERGKDPDPEIYPGDLVVVYRSDMRLFLRTLVEITPFVMVWRAYREGHHHHHH | soluble
9 | MSLCDQKNDTLQGKQNNMTAFIKKIAASKESEETQRYVGNLNGIEIKLTYYYKGDIVLRQISEHKLLYKTLKANNKEEAQKMLSQVGEAYQGMPGLTERIDYYDSYATEYVDINFTQAKISDLCKLPGSSIDNCSAYYLSMIRSQKLLEESGYHRINEGHHHHHH | soluble
10 | MSLCELSYLNAVVMLKAQRGGNSGLYFGSMTTFITSGGLEISPAGAHIVHAESPEGELLFVSSASQYGEGNAIRGGVPIIAPWFGGLLGLDPAHGWAKRSAWDVTEHDGQIHAEYGRDGLLLDIRANSTKNGFEITLRAYNDTDEARTVQLAFHPYFKVDDVEKIEVRGLDGVDILNRLNNEVETQDGPVTFDGEFDRIALGTPVVRIFDTDRIITIEGDGHDSTVVWNPGESRASTVADIGEGEWRDFVCVEPALLGADQKGVRVAPGQSVTVGMQVSVEKRAEGHHHHHH | soluble
11 | MSLCGIAGLFNCNLPADELRLDQAVAKLTHRGPDDRGIFLDGRFGMGHTRLSIIDLAGGHQPLFSEDRRLALIANGEIYNFIELRSELTAAGFRFQTQSDSEVILHAYLAFGEGFLERIQGMFAFALYDALEGRLILARDRLGIKPLFLARRPDGIAFASEIKALLPLLDQPREIDPQGLAQYFQNQFSTGATTVLRGVERVLPGEAVVVEAGKTTRRFRYWSPLAVRTEELDFDEAAARFDALMERVMVEHMRSDVPFGLFLSGGVDSSLLLALLTRYSGEPIRTFSVGFPGTSLTDELPLAEGLARRFRSRHREIRPGPQDILHSLPLTVWAADDLMRDNASLPTSLLARAAGEELKVVFSGEGGDEVFAGYGRYRTSPLERLFKSLLAPGSGGFRTRGSFRGRWPKTLFGPALLAAAQSARRPVQESWRETPREWSDLQRMQYVDLCHALPDNLLVKADRMLMAWGVEGRVPFLDHRVVEFGLSLPDRLKIEGRQGKLFLKRWGERLVPAEQLYARKEGHHHHHH | not soluble
12 | MSLCLPTIRKIAIIGAGPSGLVTAKALLAEKAFDQVTLFERRGSPGGVWNYTSTLSNKLPVPSTNPILTTEPIVGPAALPVYPSPLYRDLQTNTPIELMGYCDQSFKPQTLQFPHRHTIQEYQRIYAQPLLPFIKLATDVLDIEKKDGSWVVTYKGTKAGSPISKDIFDAVSICNGHYEVPYIPNIKGLDEYAKAVPGSVLHSSLFREPELFVGESVLVVGGASSANDLVRHLTPVAKHPIYQSLLGGGDIQNESLQQVPEITKFDPTTREIYLKGGKVLSNIDRVIYCTGYLYSVPFPSLAKLKSPETKLIDDGSHVHNVYQHIFYIPDPTLAFVGLALHVVPFPTSQAQAAFLARVWSGRLKLPSKEEQLKWQDELMFSLSGANNMYHSLDYPKDATYINKLHDWCKQATPVLEEEFPSPYWGEKERSIRENMWSIRAKFFGIEPPKEGHHHHHH | soluble
13 | MSLCLSAQRLGEEPRVNSTGRYSGPMRVLHLASEVFPFSRSGGLGDVLGALPAVQARLGEDAEVTVLSPWYASLQGEPQELWRGEAWGEQAWLGELRQDGVRYLFLGLNEFQRPGLYHPDDVERFCAFGRAALPALDAVGVTPDVLHGHDWQAGLVVAHARLRGLRTAFSVHNLQYQGRWNLHEAAGWTGLPDWTFGPDGVEFFGDLNLMKAGLNFAGHVTTVSPTYAQEITTPQYGEGLEGLLVRLTHEGRLSGILNGLDQDRWNPRTDPDIAAYSDPAGKAGAVKALRQEFGLDDAPILATVSRLADQKGMDLLITALPELVRDWNVVVLGGGDPLLEAALTGWANHPRVAFASGMNEPLAHRIYAGAHAFAMPSRFEPCGLSQLIAMRYGTLPIVRETGGLADTVPPEVGFRFADATAPAFLQACREAQAAFQDPAQWQTRATRAMSLDFSWDGPARQYLELYRGLEGHHHHHH | soluble
14 | MSLCQLLGMNCNTPTDIMFSFEGFRRRGGITDHHADGFGIGFFEGKGVRLFHDDKPSVNSPVADLVRAYQIKSENVIAHIRKASQGQTSLANTHPFMREMWGGYWLFAHNGHLIDFFPEQGEFFHPVGTTDSERAFCHILNRLRTRFAARPDDDTLFDAIAGLTHEIRKFGLFNFMLSDGIALFAHASTLLHYIVRQAPFGKEGHHHHHH | not soluble
15 | MSLCWILMASHAQAEPFKIGLLVWSDQIAGQVAMRAGLEAEAAHLQQQARDKNLPSFTLDIKLAGDGPAGVEKQIQQMQAMVDDRVDLIIVQPTDNAALSSPLQAANQAGIPVVAYDQYISGGHLSAFVTSNNYQAGFLDGEYMAHHFADDHTIQIILVEYPYVSSTIDRVDGFFDALNQYKQPYRILRSYQAVEPVQGRAVGQQILQDFPQPGSVDALFTINDGGGLAIVDELEKAGRHELFVATIDGDPNSVARIRKGSIIKIDSAQFCGPIGAEAMRAAYAILTAGKVHEHWLVPVFPITRQSVAHYPGWSGPIPEHYSNPCLTFLCREGHHHHHH | soluble
16 | MSLDEGLLNKVKERGTLLVGLEGTYPPFSFQGDDGKLTGFEVEFAQQLAKHLGVEASLKPTKWDGMLASLDSKRIDVVINQVTISDERKKKYDFSTPYTISGIQALVKKGNEGTIKTADDLKGKKVGVGLGTNYEEWLRQNVQGVDVRTYDDDPTKYQDLRVGRIDAILVDRLAALDLVKKTNDTLAVTGEAFSRQESGVALRKGNEDLLKAVNDAIAEMQKDGTLQALSEKWFGADVTEGHHHHHH | soluble
17 | MSLDHRKRESINDKNKMKVYTTVYAFQSLTQQIGGKYVDVQSIYPDGADLHSYEPTQKDMIDIAKSDLFVYSSHQLDPVAAKITNSMTNNSMKLALAEGLKQSDFIDSKGHDEDHEHHSHHEESNQDPHVWLDPVLNQKFAFMIKEKLIEKDPKHQAYYNKNYKMVNKDIVHIDQQLQSITKHSKRDKVVISHDSLGYLAHRYGFKQQGVKGMNDEEPSQKEILNIVKDIQHSHAPYVLYEQNITSKITDVIKKETDTKPLSFHNLAVLTKEEQNDDSISYQSLMKKNIYVLNRALNNEGHHHHHH | soluble
18 | MSLDIAELHRAGDDIKEMMKSEGYYSEPSKYEAELSDGNITFAYSYPIKAFEKFLGYYDRENRIAFNPSISMRTDFSFCLAACRYRKNGKTDTVVLDGYADNKYYKKAKFALDKFRSEYSINGSFDFYIKRYRRYQKAKGLSESSAVAAAVSRALISNVFGDDAAKDDIFVSRYARLVSGSGTRAAHDGISMWLSYPGMDSRDCVAFKVGKSNENLNYGVFPKYSDVATDNAHSIAVNSVFYGTWVSEKFSNVKRLISDHFDINDLLKIGENDMLRLNSILMSGGLIIQTPDSLRILKEILKFKSKNEGFYFTADTGPSIAIFSFDRSLIDEFRENVNDEYIEGSYDFKGYNNRMRDFIREAQEYFTQTPGEDEEDREGHHHHHH | soluble
